# Experimental data from patent publication US20240150465A1 (Chugai, published 2024).
# B1: DLA0316 (antibody, human IgG1, V domains shown)
# VH: QEQLVESGGGLVQPGGSLKLSCKVSGFDFSNYGVSWVRQAPGKGLEWIGYIDPAFGRTYYASWVNGRFTISSHNAQNTLYLQLNSLTAADTATYFCVRVALVVAGVAYYGMDVWGPGTLVTVSS
# VL: DVVMTQTPASVEAAVGGTVTINCQASQNIYSYLSWYQQKPGQPPKLLIYRTSTLASGVPSRFKGSGSGTQFTLTISDLECADAATYYCQSYYYSSGSSYGAFAFGGGTEVVVK
# notes: Rabbit B-cell clone, screened as B-cell culture supernatant
# B2: DL309-SG1 (antibody, human IgG1, kappa, V domains shown)
# VH: QVQLQQSGGDLMKPGASVKISCKAAGYTFSNYYIEWVKQRPGHGLEWIGEILPGSGSTTYNEKFKGKASFTADTSSNTAYMQLSSLTSEDSAVYYCARWGAREPGFPYWGQGTLVTVSA
# VL: DIVMTQSQKFMSTSVGDRVSVTCKASQNVGTNVAWYQQKPGQSPKALIYSASYRYSGVPDRFTGSGSGTDFTLTISNVQSEDLAEYFCQQYNNYPLTFGAGTKLELKR
# notes: Variable regions of a previously reported anti-DLL3 antibody on SG1/SK1; Also used biotin-labelled as a first antibody
# B3: DL306-SG1 (antibody, human IgG1, kappa, V domains shown)
# VH: EVQLQQSGPELVKPGASVKMSCRASGYTFTDYYMKWVKQSHGKSLEWIGDINPNNGDTFYNQKFKGKATLTIDKSSSTAYMQLNSLTSDDSAVYYCARDGNYAYFDYWGQGTTLTVSS
# VL: DIVLTQSPASLAVSLGQRATISCRASKSVSTSGYSYMHWYQQKPGQPPKLLIFLASNLESGVPARFSGSGSGTDFTLNIHPVEEEDAATYYCQHSRHLPWTFGGGTKLEIKR
# notes: as for B2
# B4: D30841AE05-SG1 (antibody, human IgG1, kappa, V domains shown)
# VH: QVQLKESGPALVKPTQTLTLTCTFSGFSLSSSYDMGWVRQAPGQGLEWMGTIYTGDYSTDYASWAKGRVTITADESTSTAYMELSSLRSEDTAVYYCARNTGYGYFGLWGQGTLVTVSS
# VL: DIQLTQSPSFLSASVGDRVTITCQSTESVYGSDWLSWYQQKPGQPPKLLIYQASNLEIGVPSRFSGSGSGTDFTLTINSLEAEDAATYYCQGYYSGYIYAFGGGTKVEIKR
# notes: Humanized variant of DLA0841 with SG1 heavy and SK1 light constant regions; Labelled with NHS-PEG4-Biotin when used as the first (immobilized) antibody in the Octet assay
# B5: DLL3-14-SG1 (antibody, human IgG1, kappa, V domains shown)
# VH: QVQLVQSGAEVKKPGASVKVSCKASGYTFTNYYMHWVRQAPGLGLEWMGIINPSDGSTSYAQKFQGRVTMTRDTSTNTVYMDLSSLRSEDTAVYYCARGGNSAFYSYYDMDVWGQGTTVTVSS
# VL: DVVMTQTPLSLPVTLGQPASISCRSSQSLVYRDGNTYLSWFQQRPGQSPRRLIYKVSNWQSGVPDRFSGGGSGTDFTLKISRVEAEDVGVYYCMQGTHWPPTFGQGTKVEIKR
# notes: Variable regions of a previously reported anti-DLL3 antibody on SG1/SK1; Used as a second antibody only
# B6: DL312-SG1 (antibody, human IgG1, kappa, V domains shown)
# VH: EVKLVESGGGLVQPGGSLSLSCAASGFTFTDYYMNWVRQPPGKALEWLALIRNKANGYTTEYNASVKGRFTISRDNSQNILYLQMNALRAEDSATYYCARDSDGYYEYYFDYWGQGTTLTVSS
# VL: DIQMTQSPSSLSASLGERVSLTCRASQEISDYLSWLQQKPDGTIKRLIFAASTLDSGVPKRFSGSRSGSDFSLSISSLESEDFADYYCLQYASYPYTFGSGTKLEIKR
# notes: as for B2
# Target: T1, human DLL3 (delta-like protein 3 isoform 1 precursor) expressed on Ba/F3 cells (human, UniProt Q9NYJ7 27-618)
# T1 construct: Full-length cDNA stably transfected into mouse Ba/F3 cells; also called human DLL3 expressing Ba/F3
# T1 sequence: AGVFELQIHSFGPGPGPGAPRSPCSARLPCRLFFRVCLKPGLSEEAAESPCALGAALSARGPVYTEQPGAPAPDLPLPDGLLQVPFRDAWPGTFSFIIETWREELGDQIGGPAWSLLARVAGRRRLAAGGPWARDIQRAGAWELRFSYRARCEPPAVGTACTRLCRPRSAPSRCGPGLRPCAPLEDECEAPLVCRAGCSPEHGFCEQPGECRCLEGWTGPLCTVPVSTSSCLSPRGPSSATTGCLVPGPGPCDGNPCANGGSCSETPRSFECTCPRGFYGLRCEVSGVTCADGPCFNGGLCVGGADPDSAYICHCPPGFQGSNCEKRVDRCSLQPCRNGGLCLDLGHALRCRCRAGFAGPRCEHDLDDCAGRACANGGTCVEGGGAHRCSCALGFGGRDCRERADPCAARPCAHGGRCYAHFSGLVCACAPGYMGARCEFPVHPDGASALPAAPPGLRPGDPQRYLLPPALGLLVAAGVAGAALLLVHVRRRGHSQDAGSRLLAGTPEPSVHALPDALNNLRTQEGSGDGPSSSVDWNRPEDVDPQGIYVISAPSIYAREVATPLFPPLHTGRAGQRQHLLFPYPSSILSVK
# Experiment: cell ELISA, B-cell culture supernatants on immobilized hDLL3/BaF_H3 cells
# Procedure: ELISA screening was conducted to test specificity of antibodies in B-cell culture supernatants. Human DLL3 expressing Ba/F3 (hDLL3/BaF_H3 established in Example 2, 2.5×10⁴ cells) were immobilized onto a Nunc MaxiSorp 384-well plate (Sigma-Aldrich) which was pre-coated with BSA (Sigma-Aldrich) and SUNBRIGHT (registered trademark) OE-080CS as Biocompatible Anchor for cell Membrane (YUKA SANGYO). Immobilized cells were incubated with 20 microliters (micro L) of B-cell culture supernatants for 1 hour. The supernatants were aspirated and the cells were washed with HEPES buffer (0.02 M HEPES, 5 mM KCl, 4 mM NaHCO₃, 138 mM NaCl, 2 mM CaCl₂, 5 mM Glucose, 0.4 mM KH₂PO₄, 0.34 mM Na₂HPO₄° and 0.1% BSA). After washing, goat anti-rabbit IgG polyclonal antibody HRP conjugate (BETHYL, A120-111P) was added. The cells were further incubated on ice for 1 hour and washed. Then, ABTS Microwell Peroxidase Substrate (Kirkegaard & Perry Laboratories) was added and OD405 was analyzed with […]ax 384 (Molecular Devices).
row,Binder,binding result
1,B1,binds

# Target: T2, del0
# T2 construct: also called human DLL3 ECD with Flag-tag on C-terminus
# T2 chain: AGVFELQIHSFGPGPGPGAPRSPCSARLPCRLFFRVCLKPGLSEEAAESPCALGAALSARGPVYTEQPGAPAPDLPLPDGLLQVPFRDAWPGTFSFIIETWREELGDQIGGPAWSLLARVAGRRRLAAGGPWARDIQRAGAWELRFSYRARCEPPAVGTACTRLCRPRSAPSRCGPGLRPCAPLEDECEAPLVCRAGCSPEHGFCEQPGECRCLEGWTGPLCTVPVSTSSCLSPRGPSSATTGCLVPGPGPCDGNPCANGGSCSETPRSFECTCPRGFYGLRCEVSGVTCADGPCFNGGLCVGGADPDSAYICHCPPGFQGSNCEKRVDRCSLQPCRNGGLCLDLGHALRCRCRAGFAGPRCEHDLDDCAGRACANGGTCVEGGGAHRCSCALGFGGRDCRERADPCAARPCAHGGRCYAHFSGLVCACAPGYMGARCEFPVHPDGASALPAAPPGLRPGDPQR
# Experiment: ELISA with the human DLL3 ECD fragment proteins del0 to del6, OD405
# Procedure: Nunc MaxiSorp 384-well plates (Sigma-Aldrich) were coated with each of the human DLL3 ECD fragment proteins del0 to del6, and blocked with 20% Blocking One (NACALAI TESQUE). Blocking buffer was removed and recombinant anti-DLL3 antibodies were incubated with the immobilized proteins for 1 hour at room temperature and washed with HEPES buffer (0.05% Tween20, HEPES). Monoclonal ANTI-FLAG M2-Peroxidase, Clone M2 (Sigma-Aldrich) was then added and incubated for 1 hour at room temperature and washed. Then, ABTS Microwell Peroxidase Substrate (Kirkegaard & Perry Laboratories) was added and OD405 was analyzed with […]ax 384 (Molecular Devices).
row,Binder,binding result
1,B1,binds

# Target: T3, recombinant human DLL3 (human, UniProt Q9NYJ7 27-492)
# T3 sequence: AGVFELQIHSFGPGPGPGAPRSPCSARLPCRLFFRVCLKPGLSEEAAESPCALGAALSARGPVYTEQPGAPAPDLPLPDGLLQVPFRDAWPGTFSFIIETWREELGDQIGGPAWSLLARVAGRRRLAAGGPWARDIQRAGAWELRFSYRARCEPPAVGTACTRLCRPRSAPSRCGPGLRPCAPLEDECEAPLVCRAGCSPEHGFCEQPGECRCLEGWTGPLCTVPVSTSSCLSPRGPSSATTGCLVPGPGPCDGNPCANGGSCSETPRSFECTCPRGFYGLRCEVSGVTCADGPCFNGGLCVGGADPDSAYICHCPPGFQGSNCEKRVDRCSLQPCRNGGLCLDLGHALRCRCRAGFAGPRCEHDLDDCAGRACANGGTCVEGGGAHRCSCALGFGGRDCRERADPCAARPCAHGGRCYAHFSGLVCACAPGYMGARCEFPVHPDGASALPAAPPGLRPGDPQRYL
# Experiment: Octet binning on SA sensor; Antibody A (biotinylated, loaded first): DL301-SG1; then 20 nM human DLL3, then 80 nM Antibody B
# Procedure: (§1) Octet (registered trademark) RED384 (Fortebio) was used to perform competitive binding assays by epitope binning for a panel of antibodies. A biotinylated antibody (DL301-SG1, DL306-SG1, DL309-SG1, DL312-SG1, D30316AE02-SG1, and D30841AE05-SG1) at 40 nM was first loaded to a streptavidin (SA) biosensor. Next, the sensor is exposed to 20 nM of human DLL3, followed by exposure to 80 nM of second antibody. The second antibodies are DL301-SG1, DL306-SG1, DL309-SG1, DL312-SG1, D30316AE02-SG1, D30841AE05-SG1, DLL3-14-SG1, DLL3-22-SG1, DLL3-4-SG1 and DLL3-6-SG1. Raw data was processed using ForteBio's Data Analysis Software 7.0 and the antibody pairs were assessed for competitive binding. Additional binding by the second antibody indicates an unoccupied epitope (non-competitor), while no binding indicates epitope blocking (competitor).
# (§2) The competition ratio of antibody B to antibody A was calculated using the following equation: Competition Ratio (Antibody B to Antibody A)=[Binding Response (Antibody B-Antigen)]/[Binding Response (Antigen-Antibody A)]
row,Binder,competition ratio (Antibody B to Antibody A)
1,B2,1.4
2,B3,1.1
3,B4,0.9
4,B5,1.2
5,B6,1

# Target: T3, recombinant human DLL3
# Experiment: Octet binning on SA sensor; Antibody A (biotinylated, loaded first): DL306-SG1; then 20 nM human DLL3, then 80 nM Antibody B
# Procedure: as §1, §2
row,Binder,competition ratio (Antibody B to Antibody A)
1,B2,1.4
2,B3,0
3,B4,-0.1
4,B5,1.4
5,B6,1.4

# Target: T3, recombinant human DLL3
# Experiment: Octet binning on SA sensor; Antibody A (biotinylated, loaded first): DL309-SG1; then 20 nM human DLL3, then 80 nM Antibody B
# Procedure: as §1, §2
row,Binder,competition ratio (Antibody B to Antibody A)
1,B2,-0.1
2,B3,0.9
3,B4,0.8
4,B5,1
5,B6,1.1

# Target: T3, recombinant human DLL3
# Experiment: Octet binning on SA sensor; Antibody A (biotinylated, loaded first): DL312-SG1; then 20 nM human DLL3, then 80 nM Antibody B
# Procedure: as §1, §2
row,Binder,competition ratio (Antibody B to Antibody A)
1,B2,1.5
2,B3,1.2
3,B4,1.1
4,B5,1.5
5,B6,0.2

# Target: T3, recombinant human DLL3
# Experiment: Octet binning on SA sensor; Antibody A (biotinylated, loaded first): D30316AE02-SG1; then 20 nM human DLL3, then 80 nM Antibody B
# Procedure: as §1, §2
row,Binder,competition ratio (Antibody B to Antibody A)
1,B2,1.4
2,B3,1.5
3,B4,1.3
4,B5,1.4
5,B6,1.4

# Target: T3, recombinant human DLL3
# Experiment: Octet binning on SA sensor; Antibody A (biotinylated, loaded first): D30841AE05-SG1; then 20 nM human DLL3, then 80 nM Antibody B
# Procedure: as §1, §2
row,Binder,competition ratio (Antibody B to Antibody A)
1,B2,1.5
2,B3,0
3,B4,0
4,B5,1.4
5,B6,1.4
